The RNAGym collection of RNA variant scans (doi:10.7554/elife.80360)

B1: HDV Ribozyme (parent)
chain: GGCCGGCAUGGUCCCAGCCUCCUCGCUGGCGCCGGCUGGGCAACAUUCCGAGGGGACCGUCCCCUCGGUAAUGGCGAAUGGGACCCA

Variants of: B1
Test: self-cleavage, relative activity (ratio to wild type); higher = more cleavage; co-transcriptional

Row | Variant | self-cleavage
1 | GGCCGGCAUGGUCCCAGCAUCCUCGCUGGCGCCGGCUGGGCAACAUUCCGAGGGGACCGUCCCCUCGGUAAUGGCGAAUGGGACGCA [C19A C85G] | 0.149
2 | GGCCGGCACGGUCCCAGCCUCCUCGCUGGCGCCGGCUGGGCAACAUUCCGAGGGGACCGUCCCCUCGGUAAUCGCGAAUGGGACCCA [U9C G73C] | 0.291
3 | GGCAGGCAUGGUCCCAGCCUCCUCGCUGGCGCCGGCUGGGCAACAUUCCGAGGGGACCGUCCCCUCGGUAAUGGCGAAUGGUACCCA [C4A G82U] | 0.089
4 | GGCCGGCAUGGUCCCAGCCUCCUCGAUGGCGCCGGCUGGGCAACAUUCCGAGGGGACCGUCCCCUCGGUAGUGGCGAAUGGGACCCA [C26A A71G] | 1.11
5 | GCCCGGCAUGGUCCCAGCUUCCUCGCUGGCGCCGGCUGGGCAACAUUCCGAGGGGACCGUCCCCUCGGUAAUGGCGAAUGGGACCCA [G2C C19U] | 0.0665
6 | GGCCGGCAUGGACCCAGCCUCCUCGCUGGCGCCGGCUGGGCAACAUUCCGAGGGGACCGUCCCCUCGGUAAUGGAGAAUGGGACCCA [U12A C75A] | 0.095
7 | GGCCGGCAUGGUCCCAGCCUCCUCGCUGGCGCCGGCUGGGCAACAUUCCGAGGGGACCGUCCCCUCGGUAAUGGUUAAUGGGACCCA [C75U G76U] | 0.271
8 | GGCCGGCAUGGUCCCAGCCUCCUCGCUGGCGCCGGCUGGGCAACAUUCCGAGGGGACCUUCCUCUCGGUAAUGGCGAAUGGGACCCA [G59U C63U] | 1.04
9 | GGCCGGCAUGGUCCCAGUCUCCUCGCUGGCGCCGGCUGGGCAACAUUCCGAGGGGACCGUCCCCUCGUUAAUGGCGAAUGGGACCCA [C18U G68U] | 0.635
10 | GGCCGGCAUGGUCCCAGCCUCCUCGCUGGCGCCGGCUGGGCACCAUUCCGAGCGGACCGUCCCCUCGGUAAUGGCGAAUGGGACCCA [A43C G53C] | 0.63
11 | GGCCGGCAUGGUCCCAGCCUCCUCGCUGGGGCCGGCUGGGCAACAUUCCGAGGGAACCGUCCCCUCGGUAAUGGCGAAUGGGACCCA [C30G G55A] | 0.0852
12 | GGCCGGCAUGGUCCCAGCCUCCUCGCUGGCGCCGGCUGGGCAACAUUCCGAGGGGACCGUCCCCUCGGUACUGGCGAAUGGGACUCA [A71C C85U] | 0.875
13 | GGCCUUCAUGGUCCCAGCCUCCUCGCUGGCGCCGGCUGGGCAACAUUCCGAGGGGACCGUCCCCUCGGUAAUGGCGAAUGGGACCCA [G5U G6U] | 0
14 | GGCCGGCAUGGUCCCAGCCUCCUCGCUGGCGCCGGCUGGGCAAUAUUCCGAGGGGACCGUCUCCUCGGUAAUGGCGAAUGGGACCCA [C44U C62U] | 0.443
15 | GGCCGGCAUGGUCCCAGCCUCCUCGCUGGCGCCGGCUGGGCAACAUUCCGAGGGGACCGUGCCCUCGGUAAUGGCGAAUUGGACCCA [C61G G80U] | 0.275
16 | GGCCGGCAUGGUCCCAGCCUCCUCGGUGGCGCCGGCUGGGCAACAUUCCGAGGGAACCGUCCCCUCGGUAAUGGCGAAUGGGACCCA [C26G G55A] | 0.884
17 | GGCCGGCAUGGUCCCAGCCUCCUCGCUCGCGCGGGCUGGGCAACAUUCCGAGGGGACCGUCCCCUCGGUAAUGGCGAAUGGGACCCA [G28C C33G] | 0.0519
18 | GGCCGGCAUGGCCCCAGCCUCCUCGCUGGCGCCGGCUGGGCAACAUUCCGAGGGGACCGUCACCUCGGUAAUGGCGAAUGGGACCCA [U12C C62A] | 0.57
19 | GGCCGGCAUGGUCCCAGCCUCCUCGCUGGCGCCGGCUGGGCAACAUUCCGGGGGGACCGUCCCCUCGGUAAUGGCGAAUGCGACCCA [A51G G81C] | 0.266
20 | GGCCGGCAUGGUCCCAGCCUCCUCGCUGGCGCCGGCGGGGCAACAUUCCGAGGGGACCGUCCCCUCGGUAAUGGUGAAUGGGACCCA [U37G C75U] | 0.0594
21 | GGCCGACAUUGUCCCAGCCUCCUCGCUGGCGCCGGCUGGGCAACAUUCCGAGGGGACCGUCCCCUCGGUAAUGGCGAAUGGGACCCA [G6A G10U] | 0.0963
22 | GGCCGGCAUGGUCCCAGCCUCCUCGCUGGCGCCGCCUGGGCAACAUUCCGAGGGGACCGUCCCCUCGGUAAUGGCGAAUGGGCCCCA [G35C A83C] | 0.162

Row | Variant | self-cleavage
23 | GGCCGGCAUGGUCCCAGCCUCCUCGCUGGCGCCGGCUGGGCAACAAUCCGAGGGGACCGUCCCCUCGGAAAUGGCGAAUGGGACCCA [U46A U69A] | 1.08
24 | GGCCGGCAUGGUCCCAGCCUCCUCGCUGGCGCCGGCUGGGCAACAUUCCGAGGGGACCGUCCCCUCGGUAACGGGGAAUGGGACCCA [U72C C75G] | 0.166
25 | GGCCGGCAUGGUCCCAUCCUCCUCGCUGGCUCCGGCUGGGCAACAUUCCGAGGGGACCGUCCCCUCGGUAAUGGCGAAUGGGACCCA [G17U G31U] | 0.0723
26 | GGCCGGCAUGGUCCCAGCCUCCUCGCUGGCACCGGCUGGGCAACAUUCCGAGGGGACCGUCCCCUCGGUAAUCGCGAAUGGGACCCA [G31A G73C] | 0.107
27 | GGCCGGCAUGGUCCCAGCCUCCUCGCUGGCGCCGGCUGGGCAACAUUCCGAGGGGACCUCCCCCUCGGUAAUGGCGAAUGGGACCCA [G59U U60C] | 1.37
28 | GGCCGGGAUGGUCCCAGCCUCCUCGCUGCCGCCGGCUGGGCAACAUUCCGAGGGGACCGUCCCCUCGGUAAUGGCGAAUGGGACCCA [C7G G29C] | 0.0615
29 | GGCCGGCAUGGUCCCAGCCUCCUCGCUGGCGCCAGCUGGGCAACAUUCCGAGGGGGCCGUCCCCUCGGUAAUGGCGAAUGGGACCCA [G34A A56G] | 0.104
30 | GGCCGGCAUGGUCCCAGCCUCCUCGCUGGCGCCGGCUGGGCAAAAUUCCGAGGGGACCGUCCCCUCGGUAAUGGCGAAGGGGACCCA [C44A U79G] | 0.128
31 | GGCCGGCAUGGUCCCAGCCUGCUCGCUGGCGCCGGCUGGGCCACAUUCCGAGGGGACCGUCCCCUCGGUAAUGGCGAAUGGGACCCA [C21G A42C] | 0.166
32 | GGCCGGCAUGGUCCCAGCCUCCUCGCAGGCGCCGGCUGGGCAACAUUCCGAGGGGACCGUCCACUCGGUAAUGGCGAAUGGGACCCA [U27A C63A] | 0.95
33 | GGCCGGCAUGGUCCCAGCCUCCUCGCUGGCGCCGGCUGGGCAACAUUCCGAGGGGACCGUCCCCUCGGUACUGGCGAGUGGGACCCA [A71C A78G] | 0.615
34 | GGCCGGCAUGGUCCCAGCCUCCUCGCUGGAGCCGGCUGGGCGACAUUCCGAGGGGACCGUCCCCUCGGUAAUGGCGAAUGGGACCCA [C30A A42G] | 0
35 | GGCCGGCAUGGUCCCAGCCUCCUCGCUGGCGCCGGCUGGGCAACAUUCCGAGGAGACCGUCCCCUCGGUAAUGGCGAAUGGGACUCA [G54A C85U] | 0.808
36 | GGCCGGCAUGGUCCCAGCCUCCUCGCUGGCGCCGGCUGGGCAACAACCCGAGGGGACCGUCCCCUCGGUAAUGGCGAAUGGGACCCA [U46A U47C] | 0.532
37 | GGCCGGCAUGGUCCCAGCCUCCUCGCUGGCGCAGGCUGGGCAACAUUCCGUGGGGACCGUCCCCUCGGUAAUGGCGAAUGGGACCCA [C33A A51U] | 0.373
38 | GGCCGGCAUGGCCCCAGCCUCCUCGCUGGCGCCGGCUGGGCAACAUUCCGAGAGGACCGUCCCCUCGGUAAUGGCGAAUGGGACCCA [U12C G53A] | 0.369
39 | GGCCGGCAUAGUCCCAGUCUCCUCGCUGGCGCCGGCUGGGCAACAUUCCGAGGGGACCGUCCCCUCGGUAAUGGCGAAUGGGACCCA [G10A C18U] | 0.138
40 | GGCCGGCAUCUUCCCAGCCUCCUCGCUGGCGCCGGCUGGGCAACAUUCCGAGGGGACCGUCCCCUCGGUAAUGGCGAAUGGGACCCA [G10C G11U] | 0.185
41 | GGCCGGCAUGGUCCCAGCCGCCUCGCUGGCGCCGGCUGGCCAACAUUCCGAGGGGACCGUCCCCUCGGUAAUGGCGAAUGGGACCCA [U20G G40C] | 0.0462
42 | GGCCGACAUGGUCCCAGCCUCCUCGCUGGGGCCGGCUGGGCAACAUUCCGAGGGGACCGUCCCCUCGGUAAUGGCGAAUGGGACCCA [G6A C30G] | 0.0678
43 | GGCCGGCAUGGUCCCAGCCUCCUCGGUGGCGCCGGCUGGGGAACAUUCCGAGGGGACCGUCCCCUCGGUAAUGGCGAAUGGGACCCA [C26G C41G] | 0.739
44 | GGCCGGCAUGGUCCCAGCCUCCUCGCUGGCGCCGGCUGGGCCACAUUCCGAGGGGACCGUCCCCUCGGGAAUGGCGAAUGGGACCCA [A42C U69G] | 0.246

Row | Variant | self-cleavage
45 | GGCCCGCAUGGUCCCAGCCUCCUCGCUGGCGCCGGCUGGGCAACAUUCCAAGGGGACCGUCCCCUCGGUAAUGGCGAAUGGGACCCA [G5C G50A] | 0.302
46 | GGCCGACAUGGUCCCAGCCUCCUCGCUGGCGCCGGCUGGGCAACAUUCCGAGGAGACCGUCCCCUCGGUAAUGGCGAAUGGGACCCA [G6A G54A] | 0.471
47 | GGCCGGCAUGGUCCCAGCCUCCUCGCUGGCGCCGGCUGGGCAACAUUCCGAGGGGACCAUCCCCUCGGUAAUGGCGAAUGGGACCCA [G59A] | 1.02
48 | GGCCGGCAUGGUCCCAGCCUCCUCGCUGGCGCCGGCUGGGCAACAUACCGAGGGGACCGUCCCCUCGGGAAUGGCGAAUGGGACCCA [U47A U69G] | 1.13
49 | GGCCGGCAUGGUCCCAGCCACCUCGCUGCCGCCGGCUGGGCAACAUUCCGAGGGGACCGUCCCCUCGGUAAUGGCGAAUGGGACCCA [U20A G29C] | 0.128
50 | GGCCUGCAUGGUCCCAGCCUCCUCGCUGGCGCCGGCUAGGCAACAUUCCGAGGGGACCGUCCCCUCGGUAAUGGCGAAUGGGACCCA [G5U G38A] | 0.119
51 | GGCCAGCAUGGUCCCAGCCUCCUCGCUGGCACCGGCUGGGCAACAUUCCGAGGGGACCGUCCCCUCGGUAAUGGCGAAUGGGACCCA [G5A G31A] | 0
52 | GGCCGGCAUAGUCCCAGCCUCCUCGCUGGCGCCGGCUGGGCAUCAUUCCGAGGGGACCGUCCCCUCGGUAAUGGCGAAUGGGACCCA [G10A A43U] | 0.355
53 | GGCCGGCAUGGUCCCAGCCUCCACGCUGGCGCCGGCUGGGCAACAUUCCGAGGGGACCGUCCCCUCGGUAAUGGCGAAUGAGACCCA [U23A G81A] | 0.305
54 | AGCCGGCAUGCUCCCAGCCUCCUCGCUGGCGCCGGCUGGGCAACAUUCCGAGGGGACCGUCCCCUCGGUAAUGGCGAAUGGGACCCA [G1A G11C] | 0.172
55 | GGCCGGCAUGGUCCCAGCCUCCUCGCUGGCGCCGGCUGGGCAACAUACCGAGGGGACCGUCCGCUCGGUAAUGGCGAAUGGGACCCA [U47A C63G] | 0.653
56 | GGCCGGCAUGGUCCCAGCCUCCUCGCUGGCGCCGGCUGUGCAACAUUCCGAGGGGACCGUCCCCUCGGUAAUGGCGGAUGGGACCCA [G39U A77G] | 0.564
57 | GGCCGGCAUGGUCCCAGCCUCCUCGCUGGCGCCGGCUGGGCAUCAUUCCGAGGGGACCGUCCCCUCGGUGAUGGCGAAUGGGACCCA [A43U A70G] | 1.05
58 | GGCCGGCAUGGUCCCAGCCUCCUCGCUGGCGCCGUCUGGGCAACAUUCCGAGGGGACCGUCCCCUGGGUAAUGGCGAAUGGGACCCA [G35U C66G] | 0.458
59 | GGCCGGCAUGGUCCCAGCCUCCUCGCUGGCGCCGGCUGGGCAACAUUCCGAGGCGACAGUCCCCUCGGUAAUGGCGAAUGGGACCCA [G54C C58A] | 0.923
60 | GGCCGGCAUGGUCCCAGCCUCCUCACUGGCGCCGGAUGGGCAACAUUCCGAGGGGACCGUCCCCUCGGUAAUGGCGAAUGGGACCCA [G25A C36A] | 0.0554
61 | GGUCGGCAUGGUCCCAGCCUCCUCGCUGGCGCCGGCUGGGCAACAUUCCGAGGGGACCGUCCCCUCUGUAAUGGCGAAUGGGACCCA [C3U G67U] | 0.752
62 | GGCCGGCAUGGUCCCAGCCUCCUCGCUGGCGCCGGCUGGGCAACAUUCCGAGGGGACCGUCCCCUCGGUAAUGGCCUAUGGGACCCA [G76C A77U] | 0.399
63 | GGCCGGCAUGGUCCCAGCCUCCUCGCUGGCGCCGGCUGGGCAAUAUACCGAGGGGACCGUCCCCUCGGUAAUGGCGAAUGGGACCCA [C44U U47A] | 0.743
64 | GGCCGGCAUGGUCCCAGCCUCCUCGCUGGCGCCUGCUGGGCAACAUUCCGAGGGGACCGUCCCCUCGGUAAUGGCGAAUGGAACCCA [G34U G82A] | 0.123
